These results are taken from US20140275490A1 (Astellas, published 2014).

In assay [1] the target is T1, human IL-23R-mouse Fc fusion protein (human; mouse, UniProt Q5VWK5 24-353).
T1 construct: Expressed in FreeStyle 293 cells, purified; immobilized on the ELISA plate at 500 ng/mL; also called human IL-23R-Fc fusion protein; not shown: Fc region of mouse immunoglobulin (IgG2a) as encoded by the vector pFUSE-mIgG2A-Fc2 (InvivoGen); limits and any linker r
T1 sequence: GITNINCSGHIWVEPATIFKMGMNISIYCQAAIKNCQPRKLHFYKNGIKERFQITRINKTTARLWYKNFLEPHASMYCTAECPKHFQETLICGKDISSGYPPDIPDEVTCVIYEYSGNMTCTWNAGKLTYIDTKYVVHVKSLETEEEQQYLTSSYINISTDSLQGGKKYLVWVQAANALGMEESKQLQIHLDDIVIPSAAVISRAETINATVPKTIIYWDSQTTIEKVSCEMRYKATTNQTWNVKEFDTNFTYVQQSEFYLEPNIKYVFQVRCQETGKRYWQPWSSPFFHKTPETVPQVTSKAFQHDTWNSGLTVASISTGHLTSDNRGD
Put plainly: antigen ELISA, human IL-23R-Fc immobilized, HRP anti-mouse Ig, chemiluminescence. As for the experimental part: (§1) The present inventors used an antigen ELISA to measure the antigen-specific binding activity of the antibody. The human or monkey IL-23R-Fc fusion protein was immobilized onto a Maxisorp 384-well plate (Nunc, Inc.) at a concentration of 500 ng/mL. A blocking agent (Blocking One; Nacalai Tesque, Inc.) was added thereto and allowed to stand at room temperature for 1 hour, followed by washing twice with a wash buffer [TPBS: a phosphate buffered saline (PBS) containing 0.05% Tween-20], and the purified antibody samples were suitably serially diluted and added thereto. Incubation was performed at room temperature for 1 hour, followed by washing four times with TPBS, and HRP-rabbit anti-mouse Ig antibody (DAKO) which was 2000-fold diluted with a dilution buffer was added. Incubation was performed at room temperature for 1 hour, followed by washing four times with a wash buffer. A BM-chemiluminescence ELISA substrate (POD) (Roche Diagnostics), which is a reagent for detecting chemical luminescence, was added, and the amount of chemiluminescence was measured with an EnVision counter (Perkin Elmer). Each antibody was tested in duplicate and the EC50 was analyzed by curve fitting. In this test, a fusion antibody obtained by replacing the Fc region of the known humanized anti-human IL-23R antibody hum20D7 (patent document 1) with the mouse Fc region (hereinafter referred to as hum20D7-mFc) was used as a comparative antibody. Also, the reason why the hum20D7 was fused with the mouse Fc region to prepare a fusion protein was to use anti-mouse Ig antibody as secondary antibody, and the mouse Fc region could be recognized by the anti-mouse Ig antibody, thereby rendering it possible to measure activity.
In general terms: An ELISA detects its analyte on a solid surface through an enzyme-linked reagent.

The target in assay [2] is T2, monkey IL-23R-mouse Fc fusion protein (monkey; mouse).
T2 construct: extracellular domain; also called monkey IL-23R-Fc fusion protein
Put plainly: antigen ELISA, monkey IL-23R-Fc immobilized, HRP anti-mouse Ig, chemiluminescence. The protocol: as §1

B1: 32-36 (chimeric) (antibody, V domains shown)
VH: QVQMVQSGAEVKRPGASVKVSCKVSGYTLNELGIHWVRQAPGKGLEWMGGFDPEHGKIIYAQRFQGRLTMPEDTSTDTAYMELSSLTSEDTAVYYCATVAAPLDYWGQGTLVTVSS
VL: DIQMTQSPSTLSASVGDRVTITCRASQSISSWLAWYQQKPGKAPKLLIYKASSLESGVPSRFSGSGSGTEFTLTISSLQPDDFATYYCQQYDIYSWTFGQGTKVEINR
As usually defined, the EC50 is the concentration at which the effect is half-maximal. With B1, the EC50 amounted to 0.023 µg/mL in assay [1] and 0.028 µg/mL in assay [2].
